From US20120315267A1 (GlaxoSmithKline, published 2012) come the findings set out here.

Assay in all cases: cell-based or functional assay
In one experiment the target is T1, human GCP-2 (human, UniProt P80162 38-114, limits assumed).
T1 sequence (looked up): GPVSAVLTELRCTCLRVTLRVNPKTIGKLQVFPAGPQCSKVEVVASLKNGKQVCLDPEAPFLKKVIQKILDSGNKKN

The next experiment deals with T2, human Gro-alpha (human, UniProt P09341 35-107).
T2 sequence (looked up): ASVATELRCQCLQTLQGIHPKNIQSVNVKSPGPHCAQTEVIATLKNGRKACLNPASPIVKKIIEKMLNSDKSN

Another experiment deals with T3, human Gro-beta (human, UniProt P19875 35-107).
T3 sequence (looked up): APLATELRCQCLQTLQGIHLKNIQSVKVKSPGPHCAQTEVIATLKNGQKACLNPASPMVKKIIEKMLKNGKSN

For the next experiment, the target named is T4, human NAP2 (human, UniProt P02775 59-128).
T4 sequence (looked up): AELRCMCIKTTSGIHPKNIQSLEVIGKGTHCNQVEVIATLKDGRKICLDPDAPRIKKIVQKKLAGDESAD

A further experiment has as its target T5, human Gro-gamma (human, UniProt P19876 35-107).
T5 sequence (looked up): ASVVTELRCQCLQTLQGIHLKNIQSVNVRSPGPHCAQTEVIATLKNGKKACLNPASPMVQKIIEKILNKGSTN

A further experiment addresses T6, human ENA-78 (human, UniProt P42830 37-114, limits assumed).
T6 sequence (looked up): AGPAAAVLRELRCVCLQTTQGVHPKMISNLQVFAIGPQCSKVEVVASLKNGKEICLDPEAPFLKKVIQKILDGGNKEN

Another experiment addresses T7, human IL-8 (human, UniProt P10145 28-99, limits assumed).
T7 sequence (looked up): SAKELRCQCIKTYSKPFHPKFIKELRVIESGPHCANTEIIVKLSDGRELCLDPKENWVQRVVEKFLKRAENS

B1: 2B12.1E1 (antibody, IgG2c, V domains shown)
VH: EVQLQQSGPELVKPGASVKISCKASGYTFTDYYMNWVKQSHGKSLEWIGDINPNNGNTNYNQKFKGKATLTVDKSSSTAYMEFRSLTSEDSAVYYCAGLGRIFDYWGQGTTLTVSS
VL: ENVLTQSPAIMSASPGEKVTMTCRASSSVSSTFLHWYQQKSGASPKLWIYSTSDLASGVPARFSGSGSGTSYSLTISSVEAEDAATYYCQQYSGYPWTFGGGTKLEIK
Turning to B1, the “FLIPR IC50” value was 40.9 µg/mL with human GCP-2; over 67 µg/mL with human Gro-alpha; over 65.5 µg/mL with human Gro-beta; over 67 µg/mL in the experiment with human NAP2; over 67 µg/mL in the experiment with human Gro-gamma; over 67 µg/mL with human ENA-78. Also, the “FLIPR IC50” value with human IL-8 came out at 1.6 µg/mL.

B2: 17D1.1D2 (antibody, IgG2c, V domains shown)
VH: EVQLQQSGPELVKPGASVKISCKASGYTFTDYYMNWLRQSHGKSLEWIGDINPNNGGTNYNQKFKNKATLTVDKSSSTAYMELRSLTSEDSAVFYCAGLGRIFDYWGQGTTLTVSS
VL: ENVLTQSPAIMSAFPGEKVTMTCRASSSVSSTYLHWYQQKSGASPKLWIYSTSDLASGVPARFSGSGSGTSYSLTISSVEAEDAATYYCQQFSGYPWTFGGGTKLEIK
In the case of B2, the “FLIPR IC50” value is over 200 µg/mL in the experiment with human GCP-2; over 146 µg/mL with human Gro-alpha; 81.6 µg/mL with human Gro-beta; over 200 µg/mL in the experiment with human NAP2; 144 µg/mL with human Gro-gamma; over 200 µg/mL with human ENA-78. Further, in the experiment with human IL-8, the “FLIPR IC50” value was 2.5 µg/mL.

B3: 1L351.17 (antibody, IgG2b, V domains shown)
VH: QAYLQQSGAELVRPGASVKMSCKASGYTFTSYNMHWVKQTPRQGLEWIGAIYPGNGDTSYNQKFKGKATLTVDKSSSTAYMQLSSLTSEDSAVYFCARDLYYFDYWGQGTTLTVSS
VL: ENVLTQSPAIMSAFPGEKVTMTCRASSSVSSTYLHWYQQKSGASPKLWIYSTSDLASGVPARFSGSGSGTSYSLTISSVEAEDAATYYCQQFSGYPWTFGGGTKLEIK
Consider B3, for which the “FLIPR IC50” value was over 67 µg/mL with human GCP-2; 1.92 µg/mL in the experiment with human Gro-alpha; 1.02 µg/mL in the experiment with human Gro-beta; over 67 µg/mL with human NAP2; 3.17 µg/mL in the experiment with human Gro-gamma; over 67 µg/mL in the experiment with human ENA-78. Moreover, the “FLIPR IC50” value with human IL-8 is over 67 µg/mL.

B4: 7A12.1F10 (antibody, IgG1, V domains shown)
VH: QVQLQQSGAELVKPGASVKLSCKASGYIFTSNDINWVRQRPEQGLEWIGWIFPGDNSTKFNEKFRDKATLTTDKSSSTAYMQLSGLTSEDSAVYFCATFYGSTYGYYFDYWGQGTTLTVSS
VL: DIVMTQSHKFMSTSVGDRVSITCKASQDVGTAVAWYQQKPGQSPKLLIYWTDTRHTGVPDRFTGSGSGTDFTLTISNVESEDCVDYFCHQYNNYPLTFGAGTKLELK
Take B4: the “FLIPR IC50” value with human GCP-2 is 124 µg/mL; in the experiment with human Gro-alpha, 9.9 µg/mL; with human Gro-beta it was over 200 µg/mL; with human NAP2 it was over 200 µg/mL; with human Gro-gamma, over 200 µg/mL; with human ENA-78, 2.4 µg/mL. Further, the “FLIPR IC50” value with human IL-8 was over 200 µg/mL.

B5: 2X810.3 (antibody, IgG1, V domains shown)
VH: QIQLQQSGPEVVKPGASVKISCKASGYIFTDNYIDWVQQRPGQGLEWIGWIFPGSGNTKYNEKFKGKATLTVDTFSSTAYMQLSSLTSEDTAVYFCAREIDYDYDGFFDVWGAGTTVTVSS
VL: DIVMTPSHTFMSTSVGDRVIITSKASQDVGSAVAWYQQKPGQSPTLLIYWASTRHTGVPDRFTGSGSGTDFTLTISNLQSEDLADYFCQQYSTYPLTFGAGTKLELK
As for B5, the “FLIPR IC50” value was 24.6 µg/mL in the experiment with human GCP-2; over 67 µg/mL in the experiment with human Gro-alpha; over 67 µg/mL in the experiment with human Gro-beta; over 67 µg/mL in the experiment with human NAP2; over 67 µg/mL with human Gro-gamma; 14.6 µg/mL with human ENA-78. In the experiment with human IL-8, the “FLIPR IC50” value was over 67 µg/mL.

B6: 1L132.23 (antibody, IgG1, V domains shown)
VH: QVQLQQPGAELVKPGASVKVSCKASGYTFTNYWMHWVRQRPGQGLEWIGRIHPSDNDTNYNQKFKDKATLTVDKSSNTAYMQLSSLTSEDSAVYYCAIGVYDGFIGLWGQGTSVTVSS
VL: DIQMTQSPASQSASLGESVTITCLASQTIGTWLAWYQQKPGKSPQLLIYAATRLADGVPSRFSGSGSGTKFSFKISSLQAEDFVSYYCQQLSSTPWTFGGGTKLEIK
B6: the “FLIPR IC50” value is over 67 µg/mL with human GCP-2; over 67 µg/mL with human Gro-alpha; 0.69 µg/mL in the experiment with human Gro-beta; over 67 µg/mL with human NAP2; over 67 µg/mL with human Gro-gamma; over 67 µg/mL with human ENA-78. Besides, in the experiment with human IL-8, the “FLIPR IC50” value was over 67 µg/mL.

B7: 2X907.15 (antibody, IgG1, V domains shown)
VH: EVKLVESGGGLVKPGGSLKLSCAASGFTFSDYYMYWVRQSPEKRLEWVATVSDVGSYTYYSGSVRGRFTISRDNAKNNLYLQMSSLQSEDTAIYYCSRDRTLDYWGQGTSVIVTS
VL: QIVLTQSPAIMSASPGEKVTITCNASSSVSYMHWFQQKPGTSPKLWIYSTSNLASGVPARFSGSGSGTSYSLTISRMEAEDAATYYCHQRSSFPPTFGGGTKLEIK
B7: the “FLIPR IC50” value with human GCP-2 is over 67 µg/mL; with human Gro-alpha it was over 67 µg/mL; with human Gro-beta, over 67 µg/mL; with human NAP2, over 67 µg/mL; with human Gro-gamma, over 67 µg/mL; in the experiment with human ENA-78 it was 2.6 µg/mL. Moreover, in the experiment with human IL-8, the “FLIPR IC50” value is over 67 µg/mL.

B8: 1A1.4C6 (antibody, IgG1, V domains shown)
VH: EVQLQQSGPELVKPGASVKISCKASGYTFIDYYMNWVKQSQGKSLEWIGDVNPDDGDTTYNQQFKDKATLTVDKSSSTAYMELRSLTSEDSAVYYCARDDRTSGYFDVWGTGTTVTVSS
VL: DIQMTQSTSSLSASLGDRVTISCRASQDIRNYLNWFQQKPDGTVKLLIYYTSIVHSRVPSRFSGSGSGTDYSLTINNLDQEDIATYFCQQANTLPWTFGGGTKLETK
As for B8, the “FLIPR IC50” value is 11.2 µg/mL with human GCP-2; 2.4 µg/mL in the experiment with human Gro-alpha; over 168 µg/mL with human Gro-beta; 123 µg/mL in the experiment with human NAP2; 19.2 µg/mL with human Gro-gamma; 12.3 µg/mL with human ENA-78. In the experiment with human IL-8, the “FLIPR IC50” value is over 200 µg/mL.

B9: 5D2.2D10 (antibody, V domains shown)
VH: QIQLVQSGPELKKPGETVKISCKASGYIFTAYGMSWVKQAPGKGLKWMGWINTYSGVPTYADHFKGRFDFSLETSASTAYLQINNLKNEDTATYFCARPTVVDPWYFDVWGTGTTVTVSS
VL: DIQMTQSPASLSVSVGETVTITCRASENIYSNLAWYQQKQGKSPQLLVYAATNLGDGVPSRFSGSGSGTQYSLKINSLQSEDFGSYYCQHFWTTPWTFGGGTKLEIK
For the molecule B9, the “FLIPR IC50” value was over 200 µg/mL with human GCP-2; over 200 µg/mL with human Gro-alpha; 77.4 µg/mL with human Gro-beta; over 200 µg/mL in the experiment with human NAP2; over 200 µg/mL with human Gro-gamma; 4.7 µg/mL with human ENA-78. The “FLIPR IC50” value in the experiment with human IL-8 was over 200 µg/mL.

B10: 2X352.3 (antibody, IgG1, V domains shown)
VH: QIQLVQSGPELKKPGETVKISCKASGYTLTYYGIHWVTQTPGKGLNWMGWINTNTGEPTYVEEFKGRFAFSLETSASTAYLQITDLKNEDTATYFCAKATYDGYSDYWGQGTTLTVSS
VL: DIQMTQSPASLSVSVGESVTITCRASENIYSNLAWYQQKQGKSPQLLVYDATNLAHGVPSRFSGSGSGTQFSLRINSLQSEDFGSYYCQHFWGTPLTFGAGTRLELK
In the case of B10, the “FLIPR IC50” value was over 67 µg/mL with human GCP-2; 2.06 µg/mL in the experiment with human Gro-alpha; 1.12 µg/mL with human Gro-beta; over 67 µg/mL in the experiment with human NAP2; 7.43 µg/mL with human Gro-gamma; 4.99 µg/mL with human ENA-78. In the experiment with human IL-8, the “FLIPR IC50” value was over 67 µg/mL.

B11: 9D12.1H4 (antibody, IgG1, V domains shown)
VH: EVQLQQSGPELVKPGASVRMSCKASGNTVIDYNIHWVKQSQGKSLEWIGYINPNSGGTGYNEKFKDKATLTINKSSSTAHMDLRSLTSEDSAVYYCTRFDFWGQGTTLTVSS
VL: DVLMTQTPLSLPVSLGDQASISCRSTQSIVPVNGNTHLEWYLHKPGQSPKLLIYKVSNRFSGVPDRFSGSGSGTDFTLKISRVEAEDLGVYYCFQASHVPWTFGGGTKLEIK
Turning to B11, the “FLIPR IC50” value was 6.6 µg/mL in the experiment with human GCP-2; over 67 µg/mL with human Gro-alpha; over 67 µg/mL with human Gro-beta; over 67 µg/mL with human NAP2; over 67 µg/mL with human Gro-gamma; 14.4 µg/mL with human ENA-78. Further, the “FLIPR IC50” value with human IL-8 came out at 3.4 µg/mL.
